Residue numbers refer to the chain shown, from its start.
Columns and labels:
USP1(S313A) = target: T1, USP1(S313A) (human, UniProt O94782 1-785, G670A | G671A | S313A); assay: cell-based or functional assay
T1 sequence (looked up): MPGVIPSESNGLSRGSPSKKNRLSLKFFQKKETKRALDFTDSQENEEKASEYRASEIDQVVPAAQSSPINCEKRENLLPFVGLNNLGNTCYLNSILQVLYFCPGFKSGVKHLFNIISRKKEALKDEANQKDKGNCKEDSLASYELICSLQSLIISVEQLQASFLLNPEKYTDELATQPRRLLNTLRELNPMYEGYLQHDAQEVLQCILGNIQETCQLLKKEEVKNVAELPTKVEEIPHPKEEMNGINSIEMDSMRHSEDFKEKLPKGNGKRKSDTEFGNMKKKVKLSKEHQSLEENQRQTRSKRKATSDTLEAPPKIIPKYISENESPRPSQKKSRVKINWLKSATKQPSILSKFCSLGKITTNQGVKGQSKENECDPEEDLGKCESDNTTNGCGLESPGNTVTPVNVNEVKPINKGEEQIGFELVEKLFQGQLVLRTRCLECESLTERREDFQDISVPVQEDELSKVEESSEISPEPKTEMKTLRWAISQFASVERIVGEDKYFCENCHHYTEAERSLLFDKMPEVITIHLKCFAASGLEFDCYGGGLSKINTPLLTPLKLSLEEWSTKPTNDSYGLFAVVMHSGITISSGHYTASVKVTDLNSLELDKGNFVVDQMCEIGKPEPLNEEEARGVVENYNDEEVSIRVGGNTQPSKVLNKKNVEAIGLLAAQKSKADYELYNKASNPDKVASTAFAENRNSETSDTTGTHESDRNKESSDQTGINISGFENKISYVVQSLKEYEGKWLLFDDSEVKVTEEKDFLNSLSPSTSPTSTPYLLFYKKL

USP1(S313D) = target: T2, USP1(S313D) (human, UniProt O94782 1-785, G670A | G671A | S313D); assay: cell-based or functional assay
T2 sequence (looked up): T1 sequence (looked up) with A313D

kcat/Km of USP1(S313A) purified together with His-tagged UAF1, on Ub-AMC (USP1(S313A)): 1100 M⁻¹ s⁻¹ | kcat/Km of the copurified USP1(S313D)/UAF1 complex on Ub-AMC (USP1(S313D)): 250000 M⁻¹ s⁻¹
B1: UAF1 (USP1-associated factor 1), six-His-tagged, N-terminally HA-tagged (natural protein)
chain: not shown

— article PMC3617561 (Biochemistry, 2012)
